Data taken from US20240383995A1 (SHANGHAI HENLIUS BIOTECH, published 2024).

Biological target: T1, Human OX40 expressed on transfected Jurkat or CHO cells (human, UniProt P43489 29-277)
T1 construct: also called human OX40/Jurkat; human OX40/CHO
T1 sequence: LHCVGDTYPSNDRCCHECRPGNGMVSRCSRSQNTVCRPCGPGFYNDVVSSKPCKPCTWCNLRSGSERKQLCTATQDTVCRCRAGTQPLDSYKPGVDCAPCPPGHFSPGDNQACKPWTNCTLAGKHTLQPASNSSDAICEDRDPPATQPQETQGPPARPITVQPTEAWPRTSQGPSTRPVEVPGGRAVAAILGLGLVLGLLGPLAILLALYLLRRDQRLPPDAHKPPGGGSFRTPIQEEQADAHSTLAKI
Assay: flow cytometry on human OX40-transfected Jurkat cells, Alexa Fluor488 anti-human IgG Fc, Geo MFI
Protocol: FIGS. 2A-2C depict whole cell binding of humanized anti-OX40 antibodies to human or cynomolgus OX40 assessed by flow cytometry. Human OX40-expressing Jurkat cells (FIG. 2A), human OX40-expressing CHO cells (FIG. 2B) and cynomolgus OX40-expressing CHO cells (FIG. 2C) were incubated with indicated anti-OX40 bivalent antibodies, and then stained with Alexa Fluor488 conjugated anti-human IgG Fc antibody. The fluorescence intensity was measured by flow cytometry.
Bivalent antibodies of these 15 clones were made by fusing VHH to human IgG1 Fc, expressed in ExpiCHO cells, and purified by Protein A affinity column. Binding affinity of the VHH-Fc bivalent antibodies to human or cynomolgus OX40 was evaluated by flow cytometry using Jurkat cells transfected with human OX40 (human OX40/Jurkat) (FIG. 2A), CHO cells transfected with human OX40 (human OX40/CHO) (FIG. 2B), and CHO cells transfected with cynomolgus OX40 (cyno OX40/CHO) (FIG. 2C). These antibodies with indicated concentrations were incubated with the cells in FACS buffer (3% FBS in PBS) on ice for 30 min, and the free antibodies were washed out with FACS buffer. […] Binding affinity was calculated using GraphPad Prism three parameter logistic equation. […]

EC50 (read off the curve): ~3 nM
B1: 1B3 VHH-Fc bivalent antibody (antibody, human IgG1, V domains shown)
VH: EVQLVESGGGLVQPGGSLRLSCAASGPLGMPSIAWFRQAPGKGLEFVSGIAWSTGDTYYADSVKGRFTISRDNSKNTLYLQMNSLRAEDTAVYYCAADTQVHYMGRHDIRDREEYDYWGQGTLVTVSS
notes: no light chain; also called 1B3-bivalent
